Data from publication PMC2650276 (Neuron, 2009).
Where two headings read alike, the source gives them in different places. Where no end group is shown, it is not given here.

Experiments:
Assay in all cases: pull-down
[1] = molecular target: T1, His-tagged full-length CaMKIIα (M1-H478), wild type (rat, UniProt P11275 1-478)
[2] = molecular target: His-tagged WT pCaMKIIα (autophosphorylated at T286) (rat, UniProt P11275 1-478, phosphothreonine at T286 (autophosphorylation))
[3] = molecular target: GST-tagged full-length CaMKIIα (M1-H478) (rat, UniProt P11275 1-478)
[4] = molecular target: T1, His-tagged full-length CaMKIIα …; remark: listed apart in the source
[5] = molecular target: T1, His-tagged full-length CaMKIIα …; remark: listed apart in the source

T1 sequence (P11275 whole entry): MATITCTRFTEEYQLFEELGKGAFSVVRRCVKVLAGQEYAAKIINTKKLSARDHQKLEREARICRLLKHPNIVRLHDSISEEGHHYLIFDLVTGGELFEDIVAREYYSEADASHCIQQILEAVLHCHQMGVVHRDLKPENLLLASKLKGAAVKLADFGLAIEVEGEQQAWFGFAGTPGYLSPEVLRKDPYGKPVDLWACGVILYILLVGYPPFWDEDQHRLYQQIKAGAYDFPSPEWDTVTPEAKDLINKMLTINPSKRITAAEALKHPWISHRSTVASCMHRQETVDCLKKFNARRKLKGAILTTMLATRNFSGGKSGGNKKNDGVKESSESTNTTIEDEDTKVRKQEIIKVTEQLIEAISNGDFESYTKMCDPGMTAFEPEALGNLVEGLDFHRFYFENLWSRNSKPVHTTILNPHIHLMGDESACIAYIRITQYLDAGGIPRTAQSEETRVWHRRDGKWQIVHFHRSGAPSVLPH
His-tagged WT pCaMKIIα (autophosphorylated at T286), sequence (P11275 whole entry): as above
GST-tagged full-length CaMKIIα (M1-H478), sequence (P11275 whole entry): as above

B1: GST-D3RIL3 (R210-Q375) (domain or fragment, rat, UniProt P19020 210-375, looked up)
chain: RIYIVLRQRQRKRILTRQNSQCISIRPGFPQQSSCLRLHPIRQFSIRARFLSDATGQMEHIEDKQYPQKCQDPLLSHLQPPSPGQTHGGLKRYYSICQDTALRHPSLEGGAGMSPVERTRNSLSPTMAPKLSLEVRKLSNGRLSTSLRLGPLQPRGVPLREKKATQ
[1]
  binding result: binds
[2]
  binding result: binds

B2: D3RIL3 (R210-Q375), released from GST by thrombin (domain or fragment, rat, UniProt P19020 210-375, looked up)
chain: B1 chain
[3]
  binding result: binds

## RIYIVLRQRQRKRILTRQNSQCISIRPGFP (domain or fragment, rat, UniProt P19020 210-239, looked up) [GST-D3RIL3(R210-P239)]
[4]
  binding result: binds
[2]
  binding result: binds

## YGRKKRRQRRRRILTRQNSQCISIRP (also: biotin, position not given here) [biotinylated Tat-D3Rr]
[5]
  binding result: binds
